Data from the supplement of paper PMC10567573.

B1: DVL3 (parent)
chain: FCADNPSELPPPMERTGGIGDSRP

Variants of: B1
Assay: protein stability index of a GFP-peptide fusion (GPS, HEK-293T) (PSI 1-6); higher = more stable
Conditions: c terminus: a fixed tail appended
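Also: lentivirally expressed fusions sorted by FACS into six bins by GFP to DsRed ratio, PSI derived from sequencing read proportions per bin multiplied by bin number.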

Variant | protein stability index
FCADNPSELPPPMEQTGGIGDSRP | 4.37
FCADNPSELPPPMEHTGGIGDSRP | 4.97
FCADNPSELPPPMEATGGIGDSRP | 5.48
FCADNPSELPPPMEGTGGIGDSRP | 4.56
FCADNPSELPPPMETTGGIGDSRP | 4.55
FCADNPSELPPPMEPTGGIGDSRP | 4.99
FCADNPSELPPPMENTGGIGDSRP | 4.79
FCADNPSELPPPMEYTGGIGDSRP | 4.39
FCADNPSELPPPMEMTGGIGDSRP | 4.25
FCADNPSELPPPMEWTGGIGDSRP | 3.77
FCADNPSELPPPMEDTGGIGDSRP | 4.76
FCADNPSELPPPMEITGGIGDSRP | 4.56
FCADNPSELPPPMELTGGIGDSRP | 4.51
FCADNPSELPPPMESTGGIGDSRP | 4.82
FCADNPSELPPPMEFTGGIGDSRP | 4.1
FCADNPSELPPPMEVTGGIGDSRP | 4.5
FCADNPSELPPPMEETGGIGDSRP | 5.37
FCADNPSELPPPMECTGGIGDSRP | 4.69
FCADNPSELPPPMEKTGGIGDSRP | 4.45
FCADNPSELPPPMERTGSIGDSRP | 4.64
FCADNPSELPPPMERTGNIGDSRP | 4.89
FCADNPSELPPPMERTGRIGDSRP | 4.34
FCADNPSELPPPMERTGWIGDSRP | 3.41
FCADNPSELPPPMERTGYIGDSRP | 3.38

Variant | protein stability index
FCADNPSELPPPMERTGAIGDSRP | 4.49
FCADNPSELPPPMERTGQIGDSRP | 4.81
FCADNPSELPPPMERTGKIGDSRP | 4.88
FCADNPSELPPPMERTGEIGDSRP | 5.06
FCADNPSELPPPMERTGMIGDSRP | 4.17
FCADNPSELPPPMERTGIIGDSRP | 4.05
FCADNPSELPPPMERTGDIGDSRP | 4.77
FCADNPSELPPPMERTGFIGDSRP | 4.03
FCADNPSELPPPMERTGPIGDSRP | 4.04
FCADNPSELPPPMERTGTIGDSRP | 4.47
FCADNPSELPPPMERTGLIGDSRP | 4.34
FCADNPSELPPPMERTGHIGDSRP | 4.34
FCADNPSELPPPMERTGVIGDSRP | 4
FCADNPSELPPPMERTGCIGDSRP | 4.57
FCADNPSELPGPMERTGGIGDSRP | 4.16
FCADNPSELPCPMERTGGIGDSRP | 4.33
FCADNPSELPDPMERTGGIGDSRP | 4.74
FCADNPSELPHPMERTGGIGDSRP | 4.43
FCADNPSELPNPMERTGGIGDSRP | 4.26
FCADNPSELPWPMERTGGIGDSRP | 3.64
FCADNPSELPIPMERTGGIGDSRP | 4.54
FCADNPSELPYPMERTGGIGDSRP | 4.23
FCADNPSELPEPMERTGGIGDSRP | 4.05
FCADNPSELPRPMERTGGIGDSRP | 3.91

Variant | protein stability index
FCADNPSELPFPMERTGGIGDSRP | 3.83
FCADNPSELPQPMERTGGIGDSRP | 4.54
FCADNPSELPLPMERTGGIGDSRP | 4.64
FCADNPSELPAPMERTGGIGDSRP | 5.1
FCADNPSELPMPMERTGGIGDSRP | 4.45
FCADNPSELPTPMERTGGIGDSRP | 5.12
FCADNPSELPVPMERTGGIGDSRP | 3.94
FCADNPSELPSPMERTGGIGDSRP | 4.58
FCADNPSELYPPMERTGGIGDSRP | 3.74
FCADNPSELPPPMERTGGSGDSRP | 5.22
FCADNPSELPPPMERTGGWGDSRP | 3.51
FCADNPSELPPPMERTGGTGDSRP | 4.31
FCADNPSELPPPMERTGGNGDSRP | 4.82
FCADNPSELPPPMERTGGYGDSRP | 4.35
FCADNPSELPPPMERTGGEGDSRP | 5.77
FCADNPSELPPPMERTGGCGDSRP | 4.94
FCADNPSELPPPMERTGGDGDSRP | 4.94
FCADNPSELPPPMERTGGKGDSRP | 5.59
FCADNPSELPPPMERTGGRGDSRP | 4.74
FCADNPSELPPPMERTGGMGDSRP | 4.8
FCADNPSELPPPMERTGGHGDSRP | 5.16
FCADNPSELPPPMERTGGQGDSRP | 4.65
FCADNPSELPPPMERTGGVGDSRP | 5.09
FCADNPSELPPPMERTGGAGDSRP | 5.33

Variant | protein stability index
FCADNPSELPPPMERTGGFGDSRP | 4.37
FCADNPSELPPPMERTSGIGDSRP | 4.3
FCADNPSELPPPMERTQGIGDSRP | 4.73
FCADNPSELPPPMERTTGIGDSRP | 4.48
FCADNPSELPPPMERTEGIGDSRP | 4.54
FCADNPSELPPPMERTYGIGDSRP | 3.91
FCADNPSELPPPMERTFGIGDSRP | 3.79
FCADNPSELPPPMERTIGIGDSRP | 4.09
FCADNPSELPPPMERTVGIGDSRP | 4.12
FCADNPSELPPPMERTKGIGDSRP | 4.89
FCADNPSELPPPMERTNGIGDSRP | 4.74
FCADNPSELPPPMERTMGIGDSRP | 4.48
FCADNPSELPPPMERTDGIGDSRP | 4.61
FCADNPSELPPPMERTAGIGDSRP | 4.51
FCADNPSELPPPMERTPGIGDSRP | 4.85
FCADNPSELPPPMERTHGIGDSRP | 4.69
FCADNPSELPPPMERTLGIGDSRP | 4.12
FCADNPSELPPPMERTRGIGDSRP | 4.62
FCADNPSELPPPMCRTGGIGDSRP | 3.68
FCADNPSELPPPMHRTGGIGDSRP | 4.08
FCADNPSELPPPMARTGGIGDSRP | 4.24
FCADNPSELPPPMDRTGGIGDSRP | 4.55
FCADNPSELPPPMQRTGGIGDSRP | 4.1
FCADNPSELPPPMPRTGGIGDSRP | 4.27

Variant | protein stability index
FCADNPSELPPPMWRTGGIGDSRP | 1.93
FCADNPSELPPPMRRTGGIGDSRP | 3.78
FCADNPSELPPPMYRTGGIGDSRP | 3.13
FCADNPSELPPPMIRTGGIGDSRP | 3.98
FCADNPSELPPPMLRTGGIGDSRP | 3.05
FCADNPSELPPPMKRTGGIGDSRP | 4.07
FCADNPSELPPPMMRTGGIGDSRP | 4.37
FCADNPSELPPPMNRTGGIGDSRP | 4.35
FCADNPSELPPPMSRTGGIGDSRP | 4.31
FCADNPSELPPPMTRTGGIGDSRP | 4.1
FCADNPSELPPPMGRTGGIGDSRP | 3.84
FCADNPSELPPPMFRTGGIGDSRP | 3.45
FCADNPSELPPPMERFGGIGDSRP | 3.95
FCADNPSELPPPMERNGGIGDSRP | 4.7
FCADNPSELPPPMERGGGIGDSRP | 4.45
FCADNPSELPPPMERHGGIGDSRP | 4.33
FCADNPSELPPPMERWGGIGDSRP | 2.55
FCADNPSELPPPMERDGGIGDSRP | 5.18
FCADNPSELPPPMERVGGIGDSRP | 4.02
FCADNPSELPPPMERIGGIGDSRP | 3.98
FCADNPSELPPPMERLGGIGDSRP | 3.8
FCADNPSELPPPMERRGGIGDSRP | 4.5
FCADNPSELPPPMERMGGIGDSRP | 4.11
FCADNPSELPPPMERAGGIGDSRP | 4.6

Variant | protein stability index
FCADNPSELPPPMERKGGIGDSRP | 4.29
FCADNPSELPPPMEREGGIGDSRP | 4.45
FCADNPSELPPPMERQGGIGDSRP | 5
FCADNPSELPPPMERSGGIGDSRP | 4.25
FCADNPSELPPPMERYGGIGDSRP | 3.96
FCADNPSELPPPMERPGGIGDSRP | 3.87
FCADNPSELPPPMERCGGIGDSRP | 4.07
FCADNPSELPPPMERTGGIKDSRP | 4.32
FCADNPSELPPPMERTGGIPDSRP | 5.08
FCADNPSELPPPMERTGGIQDSRP | 4.79
FCADNPSELPPPMERTGGIFDSRP | 3.78
FCADNPSELPPPMERTGGISDSRP | 4.4
FCADNPSELPPPMERTGGITDSRP | 4.66
FCADNPSELPPPMERTGGIRDSRP | 3.83
FCADNPSELPPPMERTGGIYDSRP | 3.45
FCADNPSELPPPMERTGGIHDSRP | 4.18
FCADNPSELPPPMERTGGILDSRP | 3.76
FCADNPSELPPPMERTGGICDSRP | 4.12
FCADNPSELPPPMERTGGIEDSRP | 4.53
FCADNPSELPPPMERTGGIIDSRP | 4.48
FCADNPSELPPPMERTGGIMDSRP | 4.18
FCADNPSELPPPMERTGGIDDSRP | 4.51
FCADNPSELPPPMERTGGIADSRP | 4.68
FCADNPSELPPPMERTGGINDSRP | 4.54

Variant | protein stability index
FCADNPSELPPPMERTGGIVDSRP | 4.49
FCADNPSELPPHMERTGGIGDSRP | 4.61
FCADNPSELPPIMERTGGIGDSRP | 3.76
FCADNPSELPPTMERTGGIGDSRP | 3.99
FCADNPSELPPYMERTGGIGDSRP | 3.63
FCADNPSELPPDMERTGGIGDSRP | 5.2
FCADNPSELPPAMERTGGIGDSRP | 5.55
FCADNPSELPPGMERTGGIGDSRP | 4.39
FCADNPSELPPKMERTGGIGDSRP | 4.69
FCADNPSELPPSMERTGGIGDSRP | 4.07
FCADNPSELPPMMERTGGIGDSRP | 4.19
FCADNPSELPPLMERTGGIGDSRP | 4.63
FCADNPSELPPWMERTGGIGDSRP | 1.75
FCADNPSELPPVMERTGGIGDSRP | 4.62
FCADNPSELPPRMERTGGIGDSRP | 3.93
FCADNPSELPPQMERTGGIGDSRP | 4.75
FCADNPSELPPFMERTGGIGDSRP | 3.41
FCADNPSELPPNMERTGGIGDSRP | 4.69
FCADNPSELPPEMERTGGIGDSRP | 4.89
FCADNPSELPPCMERTGGIGDSRP | 4.07
FCADNPSELPPPSERTGGIGDSRP | 4.25
FCADNPSELPPPQERTGGIGDSRP | 5
FCADNPSELPPPGERTGGIGDSRP | 4.67
FCADNPSELPPPNERTGGIGDSRP | 4.77

Variant | protein stability index
FCADNPSELPPPIERTGGIGDSRP | 4.27
FCADNPSELPPPEERTGGIGDSRP | 5.18
FCADNPSELPPPRERTGGIGDSRP | 4.2
FCADNPSELPPPFERTGGIGDSRP | 4.6
FCADNPSELPPPVERTGGIGDSRP | 4.89
FCADNPSELPPPAERTGGIGDSRP | 5.31
FCADNPSELPPPLERTGGIGDSRP | 4.98
FCADNPSELPPPDERTGGIGDSRP | 4.98
FCADNPSELPPPCERTGGIGDSRP | 4.22
FCADNPSELPPPHERTGGIGDSRP | 4.77
FCADNPSELPPPKERTGGIGDSRP | 5.04
FCADNPSELPPPWERTGGIGDSRP | 2.97
FCADNPSELPPPYERTGGIGDSRP | 4.07
FCADNPSELPPPTERTGGIGDSRP | 4.57
FCADNPSELPPPMERTGGIGHSRP | 4.37
FCADNPSELPPPMERTGGIGASRP | 4.36
FCADNPSELPPPMERTGGIGCSRP | 3.98
FCADNPSELPPPMERTGGIGGSRP | 4.36
FCADNPSELPPPMERTGGIGFSRP | 3.89
FCADNPSELPPPMERTGGIGESRP | 5.27
